Measured values published in patent publication US20050255559A1 (published 2005).
One block for each binder: values may come before it.

Molecular target: human calcium sensitive potassium channel α subunit (human Slowpoke α) (human, UniProt Q12791 1-1236)
Assay: cell-based or functional assay

human calcium sensitive potassium channel α subunit (human Slowpoke α), sequence (Q12791 whole entry): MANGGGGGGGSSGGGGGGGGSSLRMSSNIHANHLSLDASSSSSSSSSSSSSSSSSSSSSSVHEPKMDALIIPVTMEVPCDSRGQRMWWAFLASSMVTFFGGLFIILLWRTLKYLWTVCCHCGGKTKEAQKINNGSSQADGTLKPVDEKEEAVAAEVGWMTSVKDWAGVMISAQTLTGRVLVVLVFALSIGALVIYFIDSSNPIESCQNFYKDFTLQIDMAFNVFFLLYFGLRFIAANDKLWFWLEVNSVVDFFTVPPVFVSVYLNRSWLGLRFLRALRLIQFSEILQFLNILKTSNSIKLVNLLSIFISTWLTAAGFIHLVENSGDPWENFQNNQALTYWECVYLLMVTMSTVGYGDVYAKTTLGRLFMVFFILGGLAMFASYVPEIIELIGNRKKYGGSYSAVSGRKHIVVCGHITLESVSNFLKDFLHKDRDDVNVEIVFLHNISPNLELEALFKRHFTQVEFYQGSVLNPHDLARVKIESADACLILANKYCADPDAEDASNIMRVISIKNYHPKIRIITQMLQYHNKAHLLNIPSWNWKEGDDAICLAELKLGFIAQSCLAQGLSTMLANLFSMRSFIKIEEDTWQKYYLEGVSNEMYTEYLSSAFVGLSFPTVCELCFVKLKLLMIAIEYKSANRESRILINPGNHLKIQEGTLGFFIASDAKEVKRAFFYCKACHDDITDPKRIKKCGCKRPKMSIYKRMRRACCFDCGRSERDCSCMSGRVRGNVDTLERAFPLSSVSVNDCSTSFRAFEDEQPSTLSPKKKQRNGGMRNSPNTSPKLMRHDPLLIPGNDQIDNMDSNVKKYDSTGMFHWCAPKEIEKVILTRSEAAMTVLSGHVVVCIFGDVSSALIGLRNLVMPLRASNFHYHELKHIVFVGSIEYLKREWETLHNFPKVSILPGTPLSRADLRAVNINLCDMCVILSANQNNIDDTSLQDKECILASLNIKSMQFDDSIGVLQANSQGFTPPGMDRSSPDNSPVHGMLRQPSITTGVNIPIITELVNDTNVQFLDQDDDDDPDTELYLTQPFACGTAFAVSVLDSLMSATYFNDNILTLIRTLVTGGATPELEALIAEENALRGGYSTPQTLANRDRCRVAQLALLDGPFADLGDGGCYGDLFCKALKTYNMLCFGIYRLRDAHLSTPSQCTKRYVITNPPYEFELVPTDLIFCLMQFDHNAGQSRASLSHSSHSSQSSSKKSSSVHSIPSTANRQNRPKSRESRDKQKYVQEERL

V1/2 (half-maximal activation voltage, Boltzmann fit, inside-out patches, 30 µM Ca2+): -55 mV
B1: human calcium sensitive potassium channel β2 subunit (other)
chain: MFIWTSGRTSSSYRHDEKRNIYQKIRDHDLLDKRKTVTALKAGEDRAILLGLAMMVCSIMMYFLLGITLLRSYMQSVWTEESQCTLLNASITETFNCSFSCGPDCWKLSQYPCLQVYVNLTSSGEKLLLYHTEETIKINQKCSYIPKCGKNFEESMSLVNVVMENFRKYQHFSCYSDPEGNQKSVILTKLYSSNVLFHSLFWPTCMMAGGVAIVAMVKLTQYLSLLCERIQRINR

V1/2 (half-maximal activation voltage, Boltzmann fit, inside-out patches, 30 µM Ca2+): 20 mV
B2: human calcium sensitive potassium channel β3c subunit (other)
chain: MFPLLYELTAVSPSPFPQRTAFPASGKKRETDYSDGDPLDVHKRLPSSTGEDRAVMLGFAMMGFSVLMFFLLGTTILKPFMLSIQREESTCTAIHTDIMDDWLDCAFTCGVHCHGQGKYPCLQVFVNLSHPGQKALLHYNEEAVQINPKCFYTPKCHQDRSDLLNSALDIKEFFDHKNGTPFSCFYSPASQSEDVILIKKYDQMAIFHCLFWPSLTLLGGALIVGMVRLTQHLSLLCEKYSTVVRDEVGGKVPYIEQHQFKLCIMRRSKGRAEKS

V1/2 (half-maximal activation voltage, Boltzmann fit, inside-out patches, 30 µM Ca2+): 45.4 mV
B3: human calcium sensitive potassium channel β3a subunit (other)
chain: MQPFSIPVQITLQGSRRRQGRTAFPASGKKRETDYSDGDPLDVHKRLPSSTGEDRAVMLGFAMMGFSVLMFFLLGTTILKPFMLSIQREESTCTAIHTDIMDDWLDCAFTCGVHCHGQGKYPCLQVFVNLSHPGQKALLHYNEEAVQINPKCFYTPKCHQDRSDLLNSALDIKEFFDHKNGTPFSCFYSPASQSEDVILIKKYDQMAIFHCLFWPSLTLLGGALIVGMVRLTQHLSLLCEKYSTVVRDEVGGKVPYIEQHQFKLCIMRRSKGRAEKS
